Laboratory results: publication PMC9769368 (2022)

T1: AAVGo.1 virus-like particles (goat adeno-associated virus capsid, without DNA genome) (goat adeno-associated virus AAVGo.1)
T1 chain 1: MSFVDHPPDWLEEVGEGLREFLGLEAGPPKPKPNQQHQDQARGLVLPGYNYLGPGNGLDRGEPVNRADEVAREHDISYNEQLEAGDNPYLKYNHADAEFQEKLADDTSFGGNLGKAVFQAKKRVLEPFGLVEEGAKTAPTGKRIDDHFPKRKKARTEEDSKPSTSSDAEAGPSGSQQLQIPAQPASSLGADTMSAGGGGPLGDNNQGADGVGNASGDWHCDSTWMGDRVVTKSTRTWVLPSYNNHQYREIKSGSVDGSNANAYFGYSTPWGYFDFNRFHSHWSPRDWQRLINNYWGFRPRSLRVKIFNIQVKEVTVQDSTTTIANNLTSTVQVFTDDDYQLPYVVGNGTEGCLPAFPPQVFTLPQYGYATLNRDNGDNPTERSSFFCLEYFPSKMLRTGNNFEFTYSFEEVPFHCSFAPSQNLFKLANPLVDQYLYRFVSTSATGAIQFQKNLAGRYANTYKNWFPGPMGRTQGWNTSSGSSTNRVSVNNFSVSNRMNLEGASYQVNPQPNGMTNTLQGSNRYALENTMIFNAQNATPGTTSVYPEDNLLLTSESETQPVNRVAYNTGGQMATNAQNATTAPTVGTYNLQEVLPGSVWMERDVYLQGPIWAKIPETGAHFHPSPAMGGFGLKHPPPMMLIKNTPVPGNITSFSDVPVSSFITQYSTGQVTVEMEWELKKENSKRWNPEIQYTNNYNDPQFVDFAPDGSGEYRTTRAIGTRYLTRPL
T1 chain 2: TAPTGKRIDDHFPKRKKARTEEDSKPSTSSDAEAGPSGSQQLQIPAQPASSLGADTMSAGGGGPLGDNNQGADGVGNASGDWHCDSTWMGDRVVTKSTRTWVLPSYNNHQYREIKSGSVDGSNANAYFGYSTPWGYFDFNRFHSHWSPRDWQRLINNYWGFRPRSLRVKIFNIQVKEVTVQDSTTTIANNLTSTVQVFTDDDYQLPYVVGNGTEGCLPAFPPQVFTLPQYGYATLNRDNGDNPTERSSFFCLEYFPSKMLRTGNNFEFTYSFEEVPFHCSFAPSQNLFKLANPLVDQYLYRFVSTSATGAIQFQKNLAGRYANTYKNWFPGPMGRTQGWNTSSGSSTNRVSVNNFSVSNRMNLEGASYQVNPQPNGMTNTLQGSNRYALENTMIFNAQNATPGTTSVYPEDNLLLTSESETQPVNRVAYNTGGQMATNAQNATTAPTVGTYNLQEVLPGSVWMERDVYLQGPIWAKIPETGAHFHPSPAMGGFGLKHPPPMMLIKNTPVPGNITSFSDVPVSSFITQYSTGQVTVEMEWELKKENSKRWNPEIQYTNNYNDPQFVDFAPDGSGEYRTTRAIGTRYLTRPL
T1 chain 3: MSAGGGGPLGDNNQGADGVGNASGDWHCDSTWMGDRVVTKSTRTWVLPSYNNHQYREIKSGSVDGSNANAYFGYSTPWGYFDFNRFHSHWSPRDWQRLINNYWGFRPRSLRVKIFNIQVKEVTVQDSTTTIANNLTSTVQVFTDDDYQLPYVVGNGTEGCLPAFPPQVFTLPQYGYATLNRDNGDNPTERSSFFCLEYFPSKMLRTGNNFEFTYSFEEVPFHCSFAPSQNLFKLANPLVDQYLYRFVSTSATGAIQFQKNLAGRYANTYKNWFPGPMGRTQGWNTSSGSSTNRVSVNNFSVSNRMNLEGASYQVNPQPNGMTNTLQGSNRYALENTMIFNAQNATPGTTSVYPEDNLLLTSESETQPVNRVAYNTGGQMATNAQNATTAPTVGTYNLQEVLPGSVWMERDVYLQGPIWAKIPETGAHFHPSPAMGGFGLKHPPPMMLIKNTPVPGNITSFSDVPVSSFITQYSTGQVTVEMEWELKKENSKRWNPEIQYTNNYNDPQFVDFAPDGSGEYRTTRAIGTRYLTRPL

B1: His6PKD12, fragment of human AAV receptor (AAVR) with PKD domains 1 and 2 (domain or fragment)
chain: MASHHHHHHVSAGESVQITLPKNEVQLNAYVLQEPPKGETYTYDWQLITHPRDYSGEMEGKHSQILKLSKLTPGLYEFKVIVEGQNAHGEGYVNVTVKPEPRKNRPPIAIVSPQFQEISLPTTSTVIDGSQSTDDDKIVQYHWEELKGPLREEKISEDTAILKLSKLVPGNYTFSLTVVDSDGATNSTTANLTVNKAVD
B2: His6PKD1, fragment of human AAV receptor (AAVR) with PKD domain 1 (domain or fragment)
chain: SAGESVQITLPKNEVQLNAYVLQEPPKGETYTYDWQLITHPRDYSGEMEGKHSQILKLSKLTPGLYEFKVIVEGQNAHGEGYVNVTVKPE

Columns and labels:
Test in all cases: ELISA
[1] = biological target: T1, AAVGo.1 virus-like particles (goat …)
[2] = biological target: AAV2 virus-like particles (adeno-associated virus 2)
[3] = biological target: AAV5 virus-like particles (adeno-associated virus 5, UniProt Q9YIJ1 2-724)

Binder | EC50 [1] | EC50 [2] | EC50 [3]
B1 | 120 nM | 340 nM | 280 nM
B2 | 140 nM |  | 400 nM
